Measured values from patent US12415868 (MINERVA BIOTECHNOLOGIES, dated 2025).

T1: recombinant human NME7AB (human, UniProt Q9Y5B8 92-376)
T1 construct: also called NME-AB; NME7 (in several passages)
T1 sequence: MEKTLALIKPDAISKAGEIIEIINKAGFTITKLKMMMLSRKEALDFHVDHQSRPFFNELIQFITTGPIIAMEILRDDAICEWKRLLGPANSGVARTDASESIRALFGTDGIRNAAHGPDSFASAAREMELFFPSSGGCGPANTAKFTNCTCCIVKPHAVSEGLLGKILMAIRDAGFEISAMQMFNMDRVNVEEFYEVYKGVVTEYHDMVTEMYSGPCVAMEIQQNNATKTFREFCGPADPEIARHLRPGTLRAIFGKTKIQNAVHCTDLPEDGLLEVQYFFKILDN


Legend:
recombinant human NME7AB [1] = target: T1, recombinant human NME7AB; assay: ELISA, plate coated with recombinant NME7AB (FIG. 24)
Description: The surface of the multi-well plate was coated with a recombinant $NME7AB$. Anti-$NME7AB$ antibodies were separately added to wells. Standard washes were performed and visualized by adding an HRP-conjugated secondary antibody. […] 7 of the 10 new anti-NME7 antibodies bound strongly to NME7$AB$. […] The surface of the multi-well plate was coated with a recombinant NME1-S120G dimers, which are also known to bind to the MUC1* extra cellular domain. Anti-NME7$AB$ antibodies were separately added to wells. Standard washes were performed and visualized by adding an HRP-conjugated secondary antibody.

recombinant human NME7AB [2] = target: T1, recombinant human NME7AB; assay: ELISA sandwich assay, HRP signal (FIG. 1A-1B)
Description: Example 3—ELISA Assay Showing NME7$AB$ Simultaneously Binds to Two MUC1* Extra Cellular Domain Peptides Results are shown in FIG. 1. The PSMGFR peptide bearing a C-terminal Cysteine (PSMGFR-Cys) was covalently coupled to BSA using Imject Maleimide activated BSA kit (Thermo Fisher). PSMGFR-Cys coupled BSA was diluted to 10 ug/mL in 0.1M carbonate/bicarbonate buffer pH 9.6 and 50 uL was added to each well of a 96 well plate. After overnight incubation at 4° C., the plate was washed twice with PBS-T and a 3% BSA solution was added to block remaining binding site on the well. After 1 h at RT the plate was washed twice with PBS-T and NME7, diluted in PBS-T+1% BSA, was added at different concentrations. After 1h at RT the plate was washed 3× with PBS-T and anti-NM23-H7 (B-9). Santa Cruz. […] After 1 h at RT the plate was washed 3× with PBS-T and binding of NME7 was measured at 415 nm using ABTS solution (Pierce).
After 1 h at RT the plate was washed 3× with PBS-T and His-Tagged PSMGFR peptide (PSMGFR-His) or biotinylated PSMGFR peptide (PSMGFR-biotin), diluted in PBS-T+1% BSA, was added at different concentration. […] After 1 h at RT the plate was washed 3× with PBS-T and binding of PSMGFR peptide to NME7 already bound to another PSMGFR peptide (which could not signal by anti-His antibody or by streptavidin) coupled BSA was measured at 415 nm using a ABTS solution (Pierce).

Row | binding result (recombinant human NME7AB [1]) | binding result (recombinant human NME7AB [2]) | Binder
1 | binds |  | anti-NME7 monoclonal antibody 8F9A5A1 (antibody, V domains shown, Mouse monoclonal) VH: IQLVQSGPELKKPGETVKISCKASGYTFTNYGMNWVKQAPGKGLKWMGWINTYTGEPTYVDDFKGRFAFSLETSATTAYLQINNLKNEDTSTYFCARLRGIRPGPLAYWGQGTLVTVSA VL: EILLTQSPAIIAASPGEKVTITCSASSSVSYMNWYQQKPGSSPKIWIYGISNLASGVPARFSGSGSGTSFSFTINSMEAEDVATYYCQQRSSYPPTFGGGTKLEIKR
2 |  | binds | GTINVHDVETQFNQYKTEAASRYNLTISDVSVSDVPFPFSAQSGA (For the other ELISAs only surface-immobilized peptide is stated; also called MUC1* peptide; FLR) [PSMGFR peptide (MUC1* extra cellular domain peptide)]
